These results are taken from patent US20090240038A1 (Amgen, published 2009).

Changes are numbered by the printed parent chain. Numbers in names are those of the source.

Usually EC50 (read off the curve) stands for the midpoint of the concentration-response curve. Higher therefore signals weaker potency. The term Kd denotes the concentration at which binding is half-saturated. A higher Kd goes with a looser complex.

For assay [1], the target named is T1, EGFRvIII (type III deletion mutant of the epidermal growth factor receptor), expressed on cells (human, UniProt P00533 298-1210).
T1 construct: Also used for lysates of H1477 cells in Western blots; also called delta-EGFr; dEGFR
Briefly: FACS titration on NR6 cells expressing EGFRvIII, PE fluorescence intensity (geo mean).

Assay [2] concerns the target T2, Pep-3, NH2-LEEKKGNYVVTDHG-OH (human).
T2 construct: MW 1590 Da; free peptide of the Biacore and KinExA experiments
T2 peptide: H-LEEKKGNYVVTDHG-OH
Briefly: pep3 KinExA. The procedure:
All KinExA experiments were conducted at room temperature (˜23° C.). For all equilibrium experiments, antigen was serially diluted into solutions having a constant mAb binding site concentration. For the first 10 titration points the dilutions were 2-fold and the 11th and 12th serial dilutions were 10-fold. The sample flow rate for all experiments was 0.25 mL/min and the labeling antibody flow rate was 0.5 mL/min. […] A sample volume of 250 μL was analyzed for the antibody-controlled experiment. Two or three replicates of each sample were measured for all equilibrium experiments. The equilibrium titration data were fit in a dual curve analysis to a 1:1 binding model using KinExA software (Version 2.4, Sapidyne Instruments).
On the technique in general: Kinetic exclusion samples the free partner from a solution-phase mixture.

The target of assay [3] is T3, EGFRvIII-Rabbit Fc fusion protein (human; rabbit, UniProt P00533 298-645).
T3 construct: whole entry named; also called EGFRvIII-RbFc; EGFRvIII-Rab Ig Fc fusion protein; not shown: Hinge-CH2-CH3 domain of rabbit IgG
Briefly: ELISA, minilipofection supernatant titrated 1:2 on EGFRvIII-Rab Ig Fc fusion protein. As for the experimental part: The secretion ELISA tests were performed as follows. […] The plates were washed five times with dH₂O. Recombinant antibodies were titrated 1:2 for 7 wells from the undiluted minilipofection supernatant. The plates were washed five times with dH₂O. A goat anti-human IgG Fc-specific HRP-conjugated antibody was added at a final concentration of 1 μg/mL for 1 hour at RT for the secretion plates and binding plates detected with 1 μg/ml Rb anti Hu Fc for 1 hour at room temperature. The plates were washed five times with dH₂O. The plates were developed with the addition of TMB for 30 minutes and the ELISA was stopped by the addition of 1 M phosphoric acid. Each ELISA plate was analyzed to determine the optical density of each well at 450 nm.
(In general: ELISA stands for enzyme-linked immunosorbent assay.)

Assay [4] concerns the target T2, Pep-3, NH2-LEEKKGNYVVTDHG-OH. Briefly: logarithm of the measured Kd (Biacore, pep-3), listed beside simulated energies.
The target of assay [5] is T1, EGFRvIII (type III deletion mutant of …). Briefly: FACS, NR6 M cells, 0.25 µg/ml mAb + Alexa anti-human IgG Fab, 37 C without glutathione. As for the experimental part:
XenoMax derived IgG1 recombinant antibodies were expressed, purified and quantitated as described previously. Antibodies were further assayed for their ability to internalize the EGFRvIII receptor in NR6 M cells. […] The cells were washed with cold 10% FCS in PBS and secondary antibody (SS Alexa antihuman IgG Fab) at 3 μg/ml Fab was added and incubated for 7 mins on ice. The cells were washed with cold 10% FCS in PBS once and then resuspended in cold media. Next, two sets of the triplicate were incubated at 37° C. and the remaining set was incubated at 4° C. for 1 hr. After that the cells incubated at 4° C. and one set of the cells incubated at 37° C. were treated with glutathione (as previously mentioned) for 1 hr on ice. Then the cells were washed and resuspended in 100 μl of cold 1% FCS in PBS and analyzed by FACS. The % internalization was calculated from the geometric mean obtained from the FACS analysis [(mean at 37° C. with glutathione—mean at 4° C. with glutathione)/(mean at 37° C. without glutathione—mean at 4° C. with glutathione)].
Background: Flow cytometry measures light scatter and fluorescence of single cells or particles in a stream.

B1: antibody 131 (antibody, human IgG1, V domains shown)
VH: QVQLVESGGGVVQSGRSLRLSCAASGFTFRNYGMHWVRQAPGKGLEWVAVIWYDGSDKYYADSVRGRFTISRDNSKNTLYLQMNSLRAEDTAVYYCARDGYDILTGNPRDFDYWGQGTLVTVSS
VL: DTVMTQTPLSSHVTLGQPASISCRSSQSLVHSDGNTYLSWLQQRPGQPPRLLIYRISRRFSGVPDRFSGSGAGTDFTLEISRVEAEDVGVYYCMQSTHVPRTFGQGTKVEIK
notes: XenoMax derived; variable regions cloned into human IgG1 and IgK expression vectors; also called SC131
As for B1, in assay [1], the “EC50 (read off the curve)” value is approximately 0.1 µg/mL. Also, binding in assay [2] was put at a Kd of 0.05 pM. The “titer (antigen binding)” value in assay [3] was more than 64 reciprocal dilution.

B2: antibody 13.1.2 (antibody, human IgG1, V domains shown)
VH: QVQLVESGGGVVQPGRSLRLSCAASGFTFSSYGMHWVRQAPGKGLEWVAVIWYDGSNKYYVDSVKGRFTISRDNSKNTLYLQMNSLRAEDTAVYYCARDGWQQLAPFDYWGQGTLVTVSS
VL: not shown
notes: Hybridoma derived fully human IgG1 kappa
Regarding B2, the “Ln(Kd)” value in assay [4] is -16.3. In addition, the FACS geometric mean in assay [5] was 22.1.

B3: 13.1.2 variant Y172R-1.2 (antibody, V domains shown)
VH: B2 VH with Y59R
VL: not shown
notes: Position 172 of the joint numbering = residue 59 of the heavy chain variable region; also called Tyr172Arg; 172Arg
On to B3, for which, in assay [4], the “Ln(Kd)” value was -13.9.

B4: 13.1.2 variant L99T-5.3 (antibody, V domains shown)
VH: B2 VH
VL: not shown
notes: also called Leu99Thr; leu99Thr
As to B4, in assay [4], the “Ln(Kd)” value is -16.5.

B5: 13.1.2 variant N35G-3.1 (antibody, V domains shown)
VH: B2 VH
VL: DIVMTQTPLSSPVTLGQPASISCRSSQSLVHSDGGTYLSWLHQRPGQPPRLLIYKISNRFSGVPDRFSGSGAGTAFTLKISRVEAEDVGVYYCMQATQLPRTFGQGTKVEIKR
notes: also called Asn35Gly; 35Gly
Regarding B5, the “Ln(Kd)” value in assay [4] was -15.4.

B6: 13.1.2 variant L99H-9.2 (antibody, V domains shown)
VH: B2 VH
VL: not shown
notes: also called Leu99His; 99His
Take B6: the “Ln(Kd)” value in assay [4] was -14.7.

B7: 13.1.2 variant L217Q-10.1 (antibody, V domains shown)
VH: B2 VH with L104Q
VL: not shown
notes: Position 217 of the joint numbering = residue 104 of the heavy chain variable region; also called Leu217Gln; 217Gln
In the case of B7, the “Ln(Kd)” value in assay [4] was -16.2.

B8: 13.1.2 variant L99N-4.1 (antibody, V domains shown)
VH: B2 VH
VL: not shown
notes: also called Leu99Asn; 99Asn
For the molecule B8, the “Ln(Kd)” value in assay [4] is -13.5.

B9: 13.1.2 variant L217N-2.1 (antibody, V domains shown)
VH: B2 VH with L104N
VL: not shown
notes: Position 217 of the joint numbering = residue 104 of the heavy chain variable region (heavy chain starts at 114); also called Leu217Asn; 217Asn
Turning to B9, the “Ln(Kd)” value in assay [4] is -15.5.

B10: antibody 095 (antibody, human IgG1, V domains shown)
VH: QVQLQESGPFLVKPSQTLSLTCTVSGGSISSGGYYWSWIRQHPGKGLEWIGFIYYRGNTYYNPSLKSRVTISVDTSKNQFSLKLSSVTAADTAVYYCARDGYCSRTGCYGGWFDPWGQGTLVTVSP
VL: DIVMTQTPLSSPVTLGQPASISCRSSQSLIHTDGNIYLSWLQQRPGQPPRLLIYKISNRFSGVPDRFSGSGAGTDFTLKISRVEAEDVGVYYCMQGTQFPITFGQGTRLEIK
notes: Recombinant human IgG1 kappa; also called mAb 095; SC95
On to B10, for which the FACS geometric mean in assay [5] was found to be 22.6.

B11: antibody 139 (antibody, human IgG1, V domains shown)
VH: EVQVLESGGGLVQPGGSLRLSCAASGFTFSSYAMSWVRQAPGKGLEWVSAISGSGGSTNYADSVKGRFTISRDNSKNTLYLQMNSLRAEDTAVYYCAGSSGWSEYWGQGTLVTVSS
VL: DIQMTQSPSSLSASVGDRVTITCRASQGIRNNLAWYQQKPGKAPKRLIYAASNLQSGVPSRFTGSGSGTEFTLIVSSLQPEDFATYYCLQHHSYPLTSGGGTKVEIK
notes: Recombinant human IgG1 kappa; also called SC139
Take B11: the FACS geometric mean in assay [5] turned out to be 22.6.

B12: antibody 250 (antibody, human IgG1, V domains shown)
VH: B11 VH with V2G, V4L, L11W, G16E, M83V, A88V
VL: DIQMTQSPSSLSASVGDSVTITCRTSQGIRKNLGWYQQKPGKAPKRLIYAASSLQSGVPSRFSGSGSGTEFTLTISRLQPEDFATYYCLQHHSYPLTFGGGTRVEIR
notes: Recombinant human IgG1 kappa; also called SC250; sc250
Regarding B12, in assay [5], the FACS geometric mean stood at 24.1.

B13: antibody 211 (antibody, human IgG1, V domains shown)
VH: QVQLVESGGGVVQPGRSLRLSCVASGFTLSSYGMHWVRQAPGKGLEWVAVTSYDGSKKDYADSAKGRFTISRDNSKNTLYLQMNSLRAEDTAVYYCVSEGYCSSSSCYKYYYYGMDVWGQGTTVTVSS
VL: DIVMTQSPLSLPVTPGEPASISCRSSQSLLYRNGNNYLDWYLQRPGQSPQLLIYLGSNRASGVPDRFSGSGSGTDFTLKISRVEAEDVGVYYCMQALQTPRTFGQGTKVEIK
notes: Recombinant human IgG1 kappa; also called SC211; sc211
On to B13, for which the FACS geometric mean in assay [5] is 20.8.
